In patent US20220363778A1 (RESEARCH FOUNDATION FOR THE STATE UNIVERSITY OF NEW YORK, published 2022):

Experiments:
[1] = biological target: T1, mouse serum albumin (MSA) (MyBioSource, MBS135633) (mouse, UniProt P07724 25-608, limits assumed); test: SPR, mouse serum albumin immobilised on the chip, 2Rs15d-ColH-ABD injected at 7.5-60 nM, 10 min dissociation, 1:1 Langmuir fit in Scrubber
T1 construct: Immobilised on the SPR chip for kinetics
Experimental: (§1) Surface plasmon resonance (SPR) was performed using a Reichert SR7500DC SPR and SR8100 autosampler (Reichert, Depew, N.Y.). HER2-Fc (Sino Biological, Beijing, China, 10004-H02H) or mouse serum albumin (MSA) (MyBioSource, San Diego, Calif., MBS135633) was immobilized onto a carboxymethyl dextran SPR chip (Reichert, Depew, N.Y., 13206066) using 1-Ethyl-3-(3-dimethylaminopropyl)carbodiimide/N-hydroxysuccinimide linker chemistry. A mobile phase of PBS 0.05% Tween-20 at a flow rate of 25 μL/min was used for all binding evaluations. Fusion protein dilutions were injected for 90 seconds, and the chip regenerated following dissociation with a 2-minute injection of a 10 millimolar (mM) glycine buffer pH 1.5. […] The observed sensor-grams were fit to a 1:1 Langmuir binding model in the Scrubber analysis software to obtain the association rate constant (kon), dissociation rate constant (koff), and the equilibrium dissociation constant (KD).

[2] = biological target: T2, HER2-Fc (Sino Biological, 10004-H02H) (UniProt P04626 23-652); test: SPR, HER2-Fc immobilised, 1:1 Langmuir fit
T2 construct: Bought reagent, immobilised on a carboxymethyl dextran SPR chip by EDC/NHS; not shown: Fc portion of the bought reagent

[3] = biological target: T1, mouse serum albumin (MSA) (MyBioSource, …); test: SPR, mouse serum albumin immobilised on the chip, 2Rb17c-ColH-ABD injected at 7.5-75 nM, 10 min dissociation, 1:1 Langmuir fit in Scrubber
Experimental: as §1

[4] = biological target: T1, mouse serum albumin (MSA) (MyBioSource, …); test: SPR, mouse serum albumin injected at about 400 s over 2Rs15d-ColH held on a HER2-Fc chip
Text: Surface plasmon resonance was used to assess HER2 and MSA binding.

B1: 2Rs15d-ColH-ABD fusion protein (other)
chain: QVQLQESGGGSVQAGGSLKLTCAASGYIFNSCGMGWYRQSPGRERELVSRISGDGDTWHKESVKGRFTISQDNVKKTLYLQMNSLKPEDTAVYFCAVCYNLETYWGQGTQVTVSSGGGSGGGSGGGSVQNESKRYTVSYLKTLNYYDLVDLLVKTEIENLPDLFQYSSDAKEFYGNKTRMSFIMDEIGRRAPQYTEIDHKGIPTLVEVVRAGFYLGFHNKELNEINKRSFKERVIPSILAIQKNPNFKLGTEVQDKIVSATGLLAGNETAPPEVVNNFTPILQDCIKNIDRYALDDLKSKALFNVLAAPTYDITEYLRATKEKPENTPWYGKIDGFINELKKLALYGKINDNNSWIIDNGIYHIAPLGKLHSNNKIGIETLTEVMKVYPYLSMQHLQSADQIKRHYDSKDAEGNKIPLDKFKKEGKEKYCPKTYTFDDGKVIIKAGARVEEEKVKRLYWASKEVNSQFFRVYGIDKPLEEGNPDDILTMVIYNSPEEYKLNSVLYGYDTNNGGMYIEPEGTFFTYEREAQESTYTLEELFRHEYTHYLQGRYAVPGQWGRTKLYDNDRLTWYEEGGAELFAGSTRTSGILPRKSIVSNIHNTTRNNRYKLSDTVHSKYGASFEFYNYACMFMDYMYNKDMGILNKLNDLAKNNDVDGYDNYIRDLSSNYALNDKYQDHMQERIDNYENLTVPFVADDYLVRHAYKNPNEIYSEISEVAKLKDAKSEVKKSQYFSTFTLRGSYTGGASKGKLEDQKAMNKFIDDSLKKLDTYSWSGYKTLTAYFTNYKVDSSNRVTYDVVFHGYLPNEGDSKNSLPYGKINGTYKGTEKEKIKFSSEGSFDPDGKIVSYEWDFGDGNKSNEENPEHSYDKVGTYTVKLKVTDDKGESSVSTTTAEIKDLSENKLPVIYMHVPKSGALNQKVVFYGKGTYDPDGSIAGYQWDFGDGSDFSSEQNPSHVYTKKGEYTVTLRVMDSSGQMSEKTMKIKITDPVYPIGTEKEPNNSKETASGPIVPGIPVSGTIENTSDQDYFYFDVITPGEVKIDINKLGYGGATWVVYDENNNAVSYATDDGQNLSGKFKADKPGRYYIHLYMFNGSYMPYRINIEGGGSGGGSLEVLFQGPGGGSLAEAKVLANRELDKYGVSDFYKRLINKAKTVEGVEALKLHILAALPHHHHHH
notes: The text says (G4S)3 linkers and a TEV site; also called 2Rs15d-ColH-ABD035
Kd [1]: 1.5 nM

B2: 2Rb17c-ColH-ABD fusion protein (other)
chain: QVQLQESGGGLVQPGGSLRLSCAASGFIFSNDAMTWVRQAPGKGLEWVSSINWSGTHTNYADSVKGRFTISRDNAKRTLYLQMNSLKDEDTALYYCVTGYGVTKTPTGQGTQVTVSSGGGSGGGSGGGSVQNESKRYTVSYLKTLNYYDLVDLLVKTEIENLPDLFQYSSDAKEFYGNKTRMSFIMDEIGRRAPQYTEIDHKGIPTLVEVVRAGFYLGFHNKELNEINKRSFKERVIPSILAIQKNPNFKLGTEVQDKIVSATGLLAGNETAPPEVVNNFTPILQDCIKNIDRYALDDLKSKALFNVLAAPTYDITEYLRATKEKPENTPWYGKIDGFINELKKLALYGKINDNNSWIIDNGIYHIAPLGKLHSNNKIGIETLTEVMKVYPYLSMQHLQSADQIKRHYDSKDAEGNKIPLDKFKKEGKEKYCPKTYTFDDGKVIIKAGARVEEEKVKRLYWASKEVNSQFFRVYGIDKPLEEGNPDDILTMVIYNSPEEYKLNSVLYGYDTNNGGMYIEPEGTFFTYEREAQESTYTLEELFRHEYTHYLQGRYAVPGQWGRTKLYDNDRLTWYEEGGAELFAGSTRTSGILPRKSIVSNIHNTTRNNRYKLSDTVHSKYGASFEFYNYACMFMDYMYNKDMGILNKLNDLAKNNDVDGYDNYIRDLSSNYALNDKYQDHMQERIDNYENLTVPFVADDYLVRHAYKNPNEIYSEISEVAKLKDAKSEVKKSQYFSTFTLRGSYTGGASKGKLEDQKAMNKFIDDSLKKLDTYSWSGYKTLTAYFTNYKVDSSNRVTYDVVFHGYLPNEGDSKNSLPYGKINGTYKGTEKEKIKFSSEGSFDPDGKIVSYEWDFGDGNKSNEENPEHSYDKVGTYTVKLKVTDDKGESSVSTTTAEIKDLSENKLPVIYMHVPKSGALNQKVVFYGKGTYDPDGSIAGYQWDFGDGSDFSSEQNPSHVYTKKGEYTVTLRVMDSSGQMSEKTMKIKITDPVYPIGTEKEPNNSKETASGPIVPGIPVSGTIENTSDQDYFYFDVITPGEVKIDINKLGYGGATWVVYDENNNAVSYATDDGQNLSGKFKADKPGRYYIHLYMFNGSYMPYRINIEGGGSGGGSLEVLFQGPGGGSLAEAKVLANRELDKYGVSDFYKRLINKAKTVEGVEALKLHILAALPHHHHHH
Kd [2]: 17.1 nM | Kd [3]: 1.6 nM

B3: 2Rs15d-ColH fusion protein (2Rs15d-Clostridial Collagenase H fusion protein) (other)
chain: QVQLQESGGGSVQAGGSLKLTCAASGYIFNSCGMGWYRQSPGRERELVSRISGDGDTWHKESVKGRFTISQDNVKKTLYLQMNSLKPEDTAVYFCAVCYNLETYWGQGTQVTVSSGGGGSGGGGSGGGGSVQNESKRYTVSYLKTLNYYDLVDLLVKTEIENLPDLFQYSSDAKEFYGNKTRMSFIMDEIGRRAPQYTEIDHKGIPTLVEVVRAGFYLGFHNKELNEINKRSFKERVIPSILAIQKNPNFKLGTEVQDKIVSATGLLAGNETAPPEVVNNFTPILQDCIKNIDRYALDDLKSKALFNVLAAPTYDITEYLRATKEKPENTPWYGKIDGFINELKKLALYGKINDNNSWIIDNGIYHIAPLGKLHSNNKIGIETLTEVMKVYPYLSMQHLQSADQIKRHYDSKDAEGNKIPLDKFKKEGKEKYCPKTYTFDDGKVIIKAGARVEEEKVKRLYWASKEVNSQFFRVYGIDKPLEEGNPDDILTMVIYNSPEEYKLNSVLYGYDTNNGGMYIEPEGTFFTYEREAQESTYTLEELFRHEYTHYLQGRYAVPGQWGRTKLYDNDRLTWYEEGGAELFAGSTRTSGILPRKSIVSNIHNTTRNNRYKLSDTVHSKYGASFEFYNYACMFMDYMYNKDMGILNKLNDLAKNNDVDGYDNYIRDLSSNYALNDKYQDHMQERIDNYENLTVPFVADDYLVRHAYKNPNEIYSEISEVAKLKDAKSEVKKSQYFSTFTLRGSYTGGASKGKLEDQKAMNKFIDDSLKKLDTYSWSGYKTLTAYFTNYKVDSSNRVTYDVVFHGYLPNEGDSKNSLPYGKINGTYKGTEKEKIKFSSEGSFDPDGKIVSYEWDFGDGNKSNEENPEHSYDKVGTYTVKLKVTDDKGESSVSTTTAEIKDLSENKLPVIYMHVPKSGALNQKVVFYGKGTYDPDGSIAGYQWDFGDGSDFSSEQNPSHVYTKKGEYTVTLRVMDSSGQMSEKTMKIKITDPVYPIGTEKEPNNSKETASGPIVPGIPVSGTIENTSDQDYFYFDVITPGEVKIDINKLGYGGATWVVYDENNNAVSYATDDGQNLSGKFKADKPGRYYIHLYMFNGSYMPYRINIELEHHHHHH
notes: Fusion of a VHH (sdAb), a linker, Clostridium collagenase H and a His6 tag, expressed in E. coli SHuffle; also called targeted collagenase; anti-HER2-collagenase fusion protein
binding result [4]: no binding
